Measured values reported in patent publication US9457082B2, “Liposome including complex of hydrophobic active ingredient and polypeptide and use of the liposome” (Samsung Electronics Co., Ltd., priority 2013, dated 2016).

System: HepG2 liver carcinoma cells
Assay: Cytotoxicity, cell viability by CCK-8 kit
Format: cell-based
Details: about 5,000 HepG2 cells, 37° C., 46 hours
Description: The liposomes prepared in the same manner as in Example 1 were incubated with cells to confirm cell proliferation.
The liposomes prepared in the same manner as in Example 1 were added in different concentrations to about 5,000 HepG2 liver carcinoma cells, followed by being incubated at a temperature of 37° C. for 46 hours. The viability of the cultured cells was measured using a CCK-8 kit (Dojindo), and the results were shown in FIG. 7 (●: albumin, ▪: complex containing SRF and albumin).

“albumin: albumin alone, control in the cytotoxicity test; Bovine Serum Albumin in Example 1” was tested. Which “toxicity (cell viability)” value did it give?
Its value is “not toxic”.
